Literature values, collected in paper PMC5996525.

Biological target: CTLA-4 (Homo sapiens) (UniProt P16410)
Test: SPR

UniProt P16410, sequence (P16410 36-161): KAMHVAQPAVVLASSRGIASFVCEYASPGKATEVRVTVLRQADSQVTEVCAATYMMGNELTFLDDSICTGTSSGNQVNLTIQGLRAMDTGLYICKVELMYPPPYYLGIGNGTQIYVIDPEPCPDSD

In the case of tremelimumab, the Kd is given as 5.89 nM.
